Measurements as given in paper PMC3707680, “Structural and Pharmacological Characterization of Novel Potent and Selective Monoclonal Antibody Antagonists of Glucose-dependent Insulinotropic Polypeptide Receptor” (The Journal of Biological Chemistry, 2013).
Where two headings read alike, the source gives them in different places.

Assays:
[1] = target: T1, human GIP receptor on HEK293 cells (human) (UniProt P48546)
T1 sequence: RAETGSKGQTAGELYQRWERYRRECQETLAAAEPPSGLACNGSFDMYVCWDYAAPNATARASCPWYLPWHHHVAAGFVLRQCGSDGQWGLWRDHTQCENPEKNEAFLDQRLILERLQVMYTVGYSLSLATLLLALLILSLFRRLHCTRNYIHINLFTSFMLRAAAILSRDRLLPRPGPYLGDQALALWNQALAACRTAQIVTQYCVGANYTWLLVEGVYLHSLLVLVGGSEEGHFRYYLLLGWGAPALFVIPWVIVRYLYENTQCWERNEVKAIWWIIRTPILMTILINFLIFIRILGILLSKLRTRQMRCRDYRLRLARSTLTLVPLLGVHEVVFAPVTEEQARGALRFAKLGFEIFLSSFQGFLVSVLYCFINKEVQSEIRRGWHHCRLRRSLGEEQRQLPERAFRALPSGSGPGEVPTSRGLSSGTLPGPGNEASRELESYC

[2] = target: T1, human GIP receptor on HEK293 cells (human); assay: fluorescent microvolume assay technology (FMAT) on cells; receptor ligand competition with unlabelled peptides against AlexaFluor 647-labeled GIP on human GIPr-overexpressing cells; data not shown
GIP(1–42) peptide = GIP(1–42) peptide (UniProt P09681)
biotinylated GIPr ECD = target: T2, biotinylated GIPr ECD (Homo sapiens, biotin (EZ-link Sulfo-NHS-LC-Biotin), positions not stated); assay: BLI; Octet RED (reflectometric interference spectroscopy); biotinylated GIPr ECD at 1.2 μg/ml on Super Streptavidin biosensors; scFv at ~0.5 μM (12.5 μg/ml), single concentration; PBS with kinetics buffer; 1:1 Langmuir; conditions: both partners purified
T2 construct: glucose-dependent insulinotropic polypeptide receptor, human, extracellular domain; same construct as m4, biotinylated; held on Super Streptavidin biosensors; also called soluble biotinylated GIPr ECD
T2 chain: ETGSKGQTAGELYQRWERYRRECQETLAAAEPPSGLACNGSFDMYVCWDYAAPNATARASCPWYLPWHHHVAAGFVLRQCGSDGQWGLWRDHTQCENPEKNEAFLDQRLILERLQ

[3] = target: T3, human GIP receptor on HEK293 cells (human, UniProt P48546)
T3 construct: glucose-dependent insulinotropic polypeptide receptor, human, full-length receptor gene; also called HEK293 human GIPr; hGIPr; source: HEK293, stably transfected (pIRESneo3), on cells

[4] = target: T4, GIPr ECD (extracellular domain of the human GIP receptor) (Homo sapiens); assay: SPR; Biacore 2000; Gipg013 IgG amine-coupled to a CM5 chip at low density (~139 resonance units), GIPr ECD in solution; 25 °C, 30 μl/min, HBS-N (10 mM HEPES, pH 7.4, 150 mM sodium chloride); 1:1 Langmuir model; conditions: both partners purified
T4 construct: glucose-dependent insulinotropic polypeptide receptor, human, extracellular domain; also called GIPr extracellular domain
T4 chain: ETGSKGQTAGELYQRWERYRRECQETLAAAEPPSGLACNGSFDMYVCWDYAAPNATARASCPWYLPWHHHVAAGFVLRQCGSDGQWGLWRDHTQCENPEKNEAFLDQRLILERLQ

[5] = target: T3, human GIP receptor on HEK293 cells; assay: fluorescent microvolume assay technology (FMAT) on cells; receptor ligand competition: dilution series of antibody against 0.5 nM AlexaFluor 647-labeled GIP on HEK293 human GIPr cells, Hanks' balanced salt solution with 0.1% BSA, room temperature, 1–2 h; conditions: one partner purified
[6] = target: T5, human glucagon receptor on overexpressing cells (Homo sapiens, UniProt P47871); assay: fluorescent microvolume assay technology (FMAT) on cells; 0.25 μg/ml IgG with AlexaFluor 647-labeled goat anti-human IgG on stably transfected cells (5000 cells a well), Hanks' balanced salt solution with 0.1% BSA, room temperature, 3 h; conditions: one partner purified
T5 construct: glucagon receptor, human; also called GCGr; hGCGr; source: stably transfected cell line, on cells
T5 sequence (P47871 26-477): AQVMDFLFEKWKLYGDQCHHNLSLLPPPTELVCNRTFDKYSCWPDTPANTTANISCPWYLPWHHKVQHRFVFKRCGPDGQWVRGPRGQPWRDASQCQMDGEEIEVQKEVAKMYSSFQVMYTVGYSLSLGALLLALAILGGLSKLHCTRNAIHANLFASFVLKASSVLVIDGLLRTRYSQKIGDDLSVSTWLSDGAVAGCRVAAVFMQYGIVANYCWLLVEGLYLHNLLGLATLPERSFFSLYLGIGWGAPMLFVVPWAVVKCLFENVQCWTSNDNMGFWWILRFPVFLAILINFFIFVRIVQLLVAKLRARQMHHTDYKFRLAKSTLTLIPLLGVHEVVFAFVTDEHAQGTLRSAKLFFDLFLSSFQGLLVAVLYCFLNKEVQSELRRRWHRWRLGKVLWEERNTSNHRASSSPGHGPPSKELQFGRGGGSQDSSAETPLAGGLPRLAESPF

[7] = target: T6, dog GLP-1 receptor on overexpressing cells (Canis lupus familiaris, UniProt A0A8I3NUR9); assay: as above; conditions: one partner purified
T6 construct: glucagon-like peptide 1 receptor, dog; also called dGLP-1r; source: stably transfected cell line, on cells

[8] = target: T7, mouse GIP receptor on HEK293 cells (Mus musculus, UniProt Q0P543); assay: as above; conditions: one partner purified
T7 construct: glucose-dependent insulinotropic polypeptide receptor, mouse, full-length receptor gene; also called mGIPr; source: HEK293, stably transfected (pIRESneo3), on cells
T7 sequence (Q0P543 19-460): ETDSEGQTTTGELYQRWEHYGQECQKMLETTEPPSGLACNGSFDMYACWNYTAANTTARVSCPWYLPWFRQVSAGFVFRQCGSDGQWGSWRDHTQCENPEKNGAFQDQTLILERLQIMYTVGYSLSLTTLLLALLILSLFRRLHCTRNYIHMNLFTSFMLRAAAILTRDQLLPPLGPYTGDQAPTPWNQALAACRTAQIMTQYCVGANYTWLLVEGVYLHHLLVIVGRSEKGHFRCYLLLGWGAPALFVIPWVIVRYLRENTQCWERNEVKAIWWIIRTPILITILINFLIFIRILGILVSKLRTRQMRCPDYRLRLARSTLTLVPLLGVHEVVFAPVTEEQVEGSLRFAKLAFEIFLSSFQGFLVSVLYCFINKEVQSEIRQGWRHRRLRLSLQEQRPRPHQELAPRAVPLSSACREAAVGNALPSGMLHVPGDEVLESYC

[9] = target: T8, mouse GLP-1 receptor on overexpressing cells (Mus musculus, UniProt O35659); assay: as above; conditions: one partner purified
T8 construct: glucagon-like peptide 1 receptor, mouse; also called mGLP-1r; source: stably transfected cell line, on cells
T8 sequence (O35659 22-463): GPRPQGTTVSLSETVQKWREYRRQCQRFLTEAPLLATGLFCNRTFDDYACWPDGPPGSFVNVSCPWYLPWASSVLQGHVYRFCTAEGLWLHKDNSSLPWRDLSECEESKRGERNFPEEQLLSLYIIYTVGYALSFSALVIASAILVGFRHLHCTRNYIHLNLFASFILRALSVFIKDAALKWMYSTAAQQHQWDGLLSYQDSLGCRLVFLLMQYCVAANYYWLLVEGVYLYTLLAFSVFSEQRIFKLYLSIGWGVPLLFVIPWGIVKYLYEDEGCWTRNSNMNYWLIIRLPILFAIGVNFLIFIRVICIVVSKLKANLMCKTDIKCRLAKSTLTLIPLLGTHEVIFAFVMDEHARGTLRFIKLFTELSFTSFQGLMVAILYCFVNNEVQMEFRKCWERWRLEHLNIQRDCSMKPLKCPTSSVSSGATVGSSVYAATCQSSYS

[10] = target: T9, human GLP-1 receptor on overexpressing cells (Homo sapiens, UniProt P43220); assay: as above; conditions: one partner purified
T9 construct: glucagon-like peptide 1 receptor, human; also called hGLP-1r; source: stably transfected cell line, on cells
T9 sequence (P43220 24-463): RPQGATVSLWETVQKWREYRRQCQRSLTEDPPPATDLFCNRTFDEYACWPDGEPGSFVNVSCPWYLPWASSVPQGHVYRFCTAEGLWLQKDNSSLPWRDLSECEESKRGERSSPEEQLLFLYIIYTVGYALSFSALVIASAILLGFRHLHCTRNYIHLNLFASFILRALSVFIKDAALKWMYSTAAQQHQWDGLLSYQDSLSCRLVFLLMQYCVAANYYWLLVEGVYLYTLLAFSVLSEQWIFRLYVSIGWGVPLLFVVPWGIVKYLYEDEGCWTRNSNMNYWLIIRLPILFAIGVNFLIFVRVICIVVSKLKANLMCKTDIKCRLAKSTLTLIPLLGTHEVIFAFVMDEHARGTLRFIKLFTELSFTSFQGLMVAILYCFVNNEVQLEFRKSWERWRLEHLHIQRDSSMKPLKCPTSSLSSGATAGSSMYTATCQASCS

[11] = target: T10, mouse glucagon receptor on overexpressing cells (Mus musculus, UniProt Q61606); assay: as above; conditions: one partner purified
T10 construct: glucagon receptor, mouse; also called GCGr; mGCGr; source: stably transfected cell line, on cells
T10 sequence (Q61606 27-485): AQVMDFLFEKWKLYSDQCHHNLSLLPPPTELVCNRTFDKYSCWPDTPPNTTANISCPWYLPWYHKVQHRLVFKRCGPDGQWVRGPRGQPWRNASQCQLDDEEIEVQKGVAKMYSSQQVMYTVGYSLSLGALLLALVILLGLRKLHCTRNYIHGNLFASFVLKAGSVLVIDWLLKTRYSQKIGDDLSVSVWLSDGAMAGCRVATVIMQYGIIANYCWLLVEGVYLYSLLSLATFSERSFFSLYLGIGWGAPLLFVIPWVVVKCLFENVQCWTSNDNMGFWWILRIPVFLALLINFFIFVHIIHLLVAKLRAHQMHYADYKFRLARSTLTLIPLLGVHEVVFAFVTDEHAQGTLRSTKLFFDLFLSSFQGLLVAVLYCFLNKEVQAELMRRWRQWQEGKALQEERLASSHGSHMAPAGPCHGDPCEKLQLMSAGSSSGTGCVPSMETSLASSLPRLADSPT

[12] = target: T11, rat glucagon receptor on overexpressing cells (Rattus norvegicus, UniProt P30082); assay: as above; conditions: one partner purified
T11 construct: glucagon receptor, rat; also called GCGr; rGCGr; source: stably transfected cell line, on cells
T11 sequence (P30082 27-485): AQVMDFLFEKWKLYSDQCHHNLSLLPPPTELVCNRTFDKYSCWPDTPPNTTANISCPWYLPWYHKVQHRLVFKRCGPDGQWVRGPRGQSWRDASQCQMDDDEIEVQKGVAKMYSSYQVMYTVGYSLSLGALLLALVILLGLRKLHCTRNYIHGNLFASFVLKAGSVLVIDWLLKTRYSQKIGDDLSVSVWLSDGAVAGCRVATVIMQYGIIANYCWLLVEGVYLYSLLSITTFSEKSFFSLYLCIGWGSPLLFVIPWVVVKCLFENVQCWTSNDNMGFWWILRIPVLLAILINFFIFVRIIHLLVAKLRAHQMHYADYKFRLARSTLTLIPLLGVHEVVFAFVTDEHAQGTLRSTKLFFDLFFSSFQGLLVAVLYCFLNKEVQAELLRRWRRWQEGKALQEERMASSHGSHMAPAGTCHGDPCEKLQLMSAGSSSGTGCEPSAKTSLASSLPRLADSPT

[13] = target: T12, rat GLP-1 receptor on overexpressing cells (Rattus norvegicus, UniProt P32301); assay: as above; conditions: one partner purified
T12 construct: glucagon-like peptide 1 receptor, rat; also called rGLP-1r; source: stably transfected cell line, on cells
T12 sequence (P32301 22-463): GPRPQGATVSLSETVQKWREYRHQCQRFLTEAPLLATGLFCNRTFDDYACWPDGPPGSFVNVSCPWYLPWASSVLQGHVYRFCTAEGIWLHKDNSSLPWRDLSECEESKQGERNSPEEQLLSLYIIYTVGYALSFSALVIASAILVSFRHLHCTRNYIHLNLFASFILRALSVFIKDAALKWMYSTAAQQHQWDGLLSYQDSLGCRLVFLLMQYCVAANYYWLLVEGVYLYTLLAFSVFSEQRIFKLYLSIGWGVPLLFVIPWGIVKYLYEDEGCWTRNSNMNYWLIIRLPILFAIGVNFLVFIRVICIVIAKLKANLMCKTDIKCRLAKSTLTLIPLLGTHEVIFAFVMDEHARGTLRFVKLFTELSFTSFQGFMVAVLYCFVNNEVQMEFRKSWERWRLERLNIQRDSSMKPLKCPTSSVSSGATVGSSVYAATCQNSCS

[14] = target: T3, human GIP receptor on HEK293 cells; remark: listed apart in the source
[15] = target: T4, GIPr ECD (extracellular domain of the …); assay: SPR; BIAcore, Gipg013 Fab and GIPr ECD; who was immobilised is not told for the Fab; conditions: both partners purified

GIP(7–30) (peptide)
cAMP HTRF assay, antagonism of GIP-induced cAMP production in HEK293 human GIPr cells [1]: 230 nM
IC50 [2]: 83 nM

Pro3GIP (peptide)
cAMP HTRF assay, agonism in HEK293 human GIPr cells (partial, to 83% of the response with GIP) [1]: 180 nM

biotinylated GIPr ECD (domain or fragment)
cAMP assay on HEK293 GIPr cells: soluble GIPr ECD competes with the cell surface GIPr for GIP (GIP(1–42) peptide): 7 µM

B1: Gipg013 scFv (scFv, V domains shown)
VH: QVQLQQSGAEVKKPGSSVKVSCKASGGTFSSYAISWVRQAPGQGLEWMGGIIPTFGTANYAQKFQGRVTITADESTSTAYMELSSLRSEDTAVYYCAQGPIVGAPTDYWGKGTLVTVSS
VL: SYVLTQPPSASGTPGQRVAISCSGSNSNIGSNTVHWYQQLPGAAPKLLIYSNNQRPSGVPDRFSGSNSGTSASLAISRLQSEDEADYYCAAWDDSLNGVVFGGGTKVTVL
notes: VH as in the heavy chain of m1; VL as in the light chain of m1; phage vector pCantab6 is named for the libraries
Kd (biotinylated GIPr ECD): 25 nM
koff (biotinylated GIPr ECD): 0.00188 s⁻¹
kon (biotinylated GIPr ECD): 74500 M⁻¹ s⁻¹
cAMP HTRF assay, antagonism of GIP-induced cAMP production in HEK293 human GIPr cells (blocks GIP on GIPr) [3]: 233 nM

B2: Gipg013 IgG (antibody, V domains shown)
VH: QVQLQQSGAEVKKPGSSVKVSCKASGGTFSSYAISWVRQAPGQGLEWMGGIIPTFGTANYAQKFQGRVTITADESTSTAYMELSSLRSEDTAVYYCAQGPIVGAPTDYWGKGTLVTVSS
VL: SYVLTQPPSASGTPGQRVAISCSGSNSNIGSNTVHWYQQLPGAAPKLLIYSNNQRPSGVPDRFSGSNSGTSASLAISRLQSEDEADYYCAAWDDSLNGVVFGGGTKVTVL
notes: VH of Gipg013; also in PDB 4HJ0 (heavy chain of the Fab, chains P and C); heavy chain constant region of human IgG1 (full-length antibody in the IgG1 format); the light chain is in PDB 4HJ0 (chains Q and D); IgG1; converted from the scFv clone; also called GIP013; Gipr013; source: mammalian cells (variable genes cloned into the pEU vectors), purified; copies: 2 + 2
Kd [4]: 23 nM
koff [4]: 0.00369 s⁻¹
kon [4]: 159000 M⁻¹ s⁻¹
IC50 [5]: 17.2 ± 6 nM
binding result [6]: no binding (tested: 0.25 μg/ml)
binding result [7]: no binding (tested: 0.25 μg/ml)
binding result [8]: binds
binding result [9]: no binding (tested: 0.25 μg/ml)
binding result [10]: no binding (tested: 0.25 μg/ml)
binding result [11]: no binding (tested: 0.25 μg/ml)
binding result [12]: no binding (tested: 0.25 μg/ml)
binding result [13]: no binding (tested: 0.25 μg/ml)

B3: Gipg013 Fab (Fab, V domains shown)
VH: QVQLQQSGAEVKKPGSSVKVSCKASGGTFSSYAISWVRQAPGQGLEWMGGIIPTFGTANYAQKFQGRVTITADESTSTAYMELSSLRSEDTAVYYCAQGPIVGAPTDYWGKGTLVTVSS
VL: SYVLTQPPSASGTPGQRVAISCSGSNSNIGSNTVHWYQQLPGAAPKLLIYSNNQRPSGVPDRFSGSNSGTSASLAISRLQSEDEADYYCAAWDDSLNGVVFGGGTKVTVL
notes: heavy chain of the Fab, PDB 4HJ0 chains P and C (final model Gln3-Val217, 206 residues); as the heavy chain of m1 up to the papain cut; light chain of the Fab, PDB 4HJ0 chains Q and D (final model Ser1-Glu213, 211 residues); as the light chain of m1; also called Gip013 Fab; source: papain digestion of the antibody
cAMP HTRF assay, antagonism of GIP-induced cAMP production in HEK293 human GIPr cells (blocks GIP on GIPr) [14]: 102 nM
Kd [15]: 40 nM
